From US20240174992A1, “SPLIT MODIFIED DEHALOGENASE VARIANTS” (Promega Corporation, priority 2022, published 2024)
Numbering of substitutions follows the chain as printed. Names and notes keep the numbering of the source.

Key:
[1] = system: synthetic HaloTag[3-19] peptide; experiment: Complementation of large HaloTag fragment in E. coli lysates with synthetic HaloTag[3-19] peptide, JF646; type: binding; conditions: for Kd: synthetic HaloTag[3-19] peptide titration up to 1 mM, estimated from saturation of fluorescence signal, read-out: affinity between the split HaloTag fragments
Description: FIG. 30. Complementation of HaloTag[22-297](M2F) fragment in E. coli lysates using a synthetic HaloTag[3-19] peptide. […] Reactions were incubated for 2 hours at room temperature and then labeled with 50 nM JF646 HaloTag ligand prior to fluorescence detection.
FIG. 31. Complementation of HaloTag[22-297](Q145H+P154R) fragment in E. coli lysates using a synthetic HaloTag[3-19] peptide. […] Reactions were incubated for 2 hours at room temperature and then labeled with 50 nM JF646 HaloTag ligand prior to fluorescence detection.

[2] = target: T1, BRD4:Histone H3.3 interaction (Homo sapiens, UniProt O60885); experiment: Live cell imaging of the BRD4:Histone H3 interaction with split HaloTag in HeLa cells; type: cell-based; conditions: second experiment, lower laser intensity
T1 construct: HaloTag[3-19]; expressed in transfected cells; host or cells: HeLa cells
Description: The Imaging data were collected in the far-red channel (Ex. 637 nm) and the green channel (Ex. 488 nm).
The imaging data were collected in the far-red channel (Ex. 637 nm) and the green channel (Ex. 488 nm). * DIC: Differential Interference Contrast.
The imaging data were collected in the far-red channel (Ex. 637 nm) and the green channel (Ex. 488 nm).
Each dot represents the intensity of an imaged cell. CellProfiler software is used for analysis. The horizontal line in each set indicates the median of the data.
Each dot represents the intensity of an imaged cell. CellProfiler software is used for this analysis. The horizontal line is indicative of the median of the data.
A second set of imaging experiments was performed to confirm reproducibility and show improvement of the system's signal-to-background ratio by changing a few confocal microscope settings, such as lower gain and laser intensity (FIG. 132).
The purpose of the second experiment (FIG. 131-134) with lower signal intensity was to see if most of the background signal could be eliminated with the cost of the overall reduction in the specific signal in the far-red channel.

[3] = Complementation of N-terminal split HaloTag constructs in E. coli lysates, Janelia Fluor ligand fluorescence; type: biochemical; conditions: 500 nM Rapamycin, 50 nM JF646
Description: FIG. 21A-B. Comparison of complementation activity of N-terminal split HaloTag constructs. Each HaloTag fragment was expressed separately in E. coli and then combined after lysis. The smaller N-terminal HaloTag fragments as FKBP fusions were tested against the larger fragments of FIG. 21A HT(23-297)-FRB or FIG. 21B HT(22-297)-FRB. To each reaction, 500 nM Rapamycin was added and incubated at room temperature for 2.5 hours prior to addition of 50 nM JF646 ligand and measurement of fluorescence at the indicated timepoint.
FIG. 22. Comparison of truncations of N-terminal split HaloTag constructs. Each HaloTag fragment was expressed separately in E. coli and then combined after lysis. […] To each reaction, 500 nM Rapamycin was added and incubated at room temperature for 2 hours prior to addition of 50 nM JF646 ligand and measurement of fluorescence at the indicated timepoint.
FIG. 25A-B. Mutations in N-terminal split HaloTag fragments improve fluorescence intensity and fold response. […] To each reaction, 500 nM Rapamycin was added and incubated at room temperature for 2 hours prior to addition of 50 nM JF646 ligand and measurement of fluorescence at the indicated timepoint. FIG. 25A Fluorescence intensity is shown for +Rapamycin condition to show the overall system brightness relative to FIG. 25B Fold response following Rapamycin addition. […]

[4] = target: T2, BRD4:Histone H3 interaction (Homo sapiens, UniProt O60885); experiment: Single live cell time-lapse imaging after JQ1 addition (SmHaloTag dissociation); type: cell-based; conditions: 20 micromolar JQ1, up to about 5 hours, ligand-bound
T2 construct: HaloTag[3-19]; expressed in transfected cells; host or cells: HeLa cells
Description: FIG. 139. Quantitation of single live cell time-lapse imaging of inhibition of the BRD4:Histone H3 interaction using split HaloTag fluorescence. […] The intensity of a single cell in both the green and the far-red channel plus its occupied area was tracked over this period.
Measurement of the fluorescence intensity of Split HaloTag after the dissociation of the Small HaloTag peptide, HaloTag[3-19], was tested. After the separation of the SmHaloTag, the Large HaloTag, HaloTag[22-297](M2F), is still covalently bound to the ligand but does the Small HaloTag dissociation affect the ligand fluorogenicity/activity? Time-lapse live cell imaging was performed to address this question. To ensure the tracked cell was viable during the experiment, the area occupied by that specific cell was measured at all time points.

HeLa cells [5] = experiment: Live cell confocal imaging of split HaloTag in the FRB/FKBP model system in HeLa cells; type: cell-based; conditions: for signal-to-background ratio, complemented split HaloTag over labeling the large HaloTag alone: presence of Rapamycin; for S:B ratio in +rapamycin/−rapamycin conditions: with HaloTag[3-19] fragment, JF646 imaging
Description: (§1) FIG. 105. Live cell imaging of split HaloTag activity in mammalian cells using a model protein interaction system showing dependence on interaction facilitation for labeling. HeLa cells transiently transfected with plasmids expressing both EGFP-FKBP-HaloTag[3-19] and HaloTag[22-297](Q145H+P154R)-FRB were imaged in +/−Rapamycin conditions; in +Rapamycin condition cells were incubated with 1 micromolar Rapamycin overnight at 37° C. Prior to imaging by confocal microscopy, cells were labeled with 100 nM JF646 HaloTag ligand for 30 minutes at 37° C. The Imaging data were collected in the Far-red channel (Ex. 637 nm, left) and the green channel (Ex. 488 nm, right).
(§2) FIG. 106. Quantitation of live cell imaging of split HaloTag activity in mammalian cells using a model protein interaction system. HeLa cells transiently transfected with plasmids expressing both EGFP-FKBP-HaloTag[3-19] and HaloTag[22-297](Q145H+P154R)-FRB were imaged in +/−Rapamycin conditions; in +Rapamycin condition cells were incubated with 1 micromolar Rapamycin overnight at 37° C. Prior to imaging by confocal microscopy, cells were labeled with 100 nM JF646 HaloTag ligand for 30 minutes at 37° C. Comparison of the fluorescence intensity of non-complemented vs. complemented split HaloTag in +/−RAP conditions in the far-red channel, respectively.
as §1, with “107.” for “105.”, “HaloTag[22-297](M2F)-FRB” for “HaloTag[22-297](Q145H+P154R)-FRB”
as §2, with “FIG. 108. Quantitation of” for “FIG. 106. Quantitation of”, “EGFP-FKBP-HaloTag[3-19] and HaloTag[22-297](M2F)-FRB were imaged” for “EGFP-FKBP-HaloTag[3-19] and HaloTag[22-297](Q145H+P154R)-FRB were imaged”, “minutes at Comparison of” for “minutes at 37° C. Comparison of”
FIG. 109. […] Each dot represents the intensity of an imaged cell as quantitated using CellProfiler software.
FIG. 115. Live cell imaging of split HaloTag activity in mammalian cells. HeLa cells transiently transfected with plasmids expressing both EGFP-FKBP-HaloTag[3-19] and HaloTag[22-297](Q145H+P154R)-FRB were imaged in +Rapamycin condition, 1 micromolar Rapamycin overnight incubation at 37° C. Prior to imaging by confocal microscopy, cells were labeled with 100 nM JF646 HaloTag ligand for 30 minutes at 37° C. The Imaging data were collected in the Far-red channel (Ex. 637 nm, bottom) and the green channel (Ex. 488 nm, top).
FIG. 116. Live cell imaging of split HaloTag activity in mammalian cells. HeLa cells transiently transfected with plasmids expressing both EGFP-FKBP-HaloTag[3-19] and HaloTag[22-297](Q145H+P154R)-FRB were imaged in and −Rapamycin condition. […]

HeLa cells [6] = experiment: Lytic TMR assay of large HaloTag fragment expression in HeLa cells; type: cell-based; conditions: complemented and non-complemented forms
Description: FIG. 124. Comparing the expression of HaloTag[22-297](Q145H+P154R) and HaloTag[22-297](M2F) when complemented with the small HaloTag fragment in mammalian cells. 50 ul of HeLa cells lysate that was transiently transfected with plasmids expressing EGFP-FKBP-HaloTag[3-19], HaloTag[22-297](Q145H+P154R)-FRB or HaloTag[22-297](M2F)-FRB plasmids and were incubated with 500 nM Rapamycin at room temperature for 2 hours to induce HaloTag fragments complementation. TMR HaloTag ligand at 2 micromolar was added to all wells and incubated at room temperature in the dark overnight prior to resolution by SDS-PAGE and fluorescence detection.
Experiments were conducted during development of embodiments herein to compare the expression of HaloTag[22-297](Q145H+P154R) vs. HaloTag[22-297](M2F) as complemented with the small HaloTag fragment HaloTag[3-19] and non-complemented form in mammalian cells (FIG. 124).

[7] = Kinetic labeling assay with TMR ligand, fluorescence polarization, synthetic peptide complementation; type: biochemical, E. coli; conditions: 10 nM TMR ligand
Description: FIG. 32. Complementation of HaloTag[22-297](M2F) fragments using a synthetic HaloTag[3-19] peptide in a kinetic labeling assay.
A different HaloTag ligand (TMR) and fluorescence polarization assay format can be used to measure complementation with synthetic peptides (FIG. 32). […] At high peptide concentrations, the complementation with the peptide results in greater labeling rates.
The LgHT variant, HaloTag[22-297](Q145H+P154R), was also tested with the HaloTag ligand (TMR) in the fluorescence polarization assay format to measure complementation with synthetic peptides (FIG. 33). The relative kinetic rate of labeling is higher for this mutant without peptide due to its greater intrinsic stability and expression in E. coli lysates.

[8] = compared with HaloTag[22-297](M2F)

B1: HaloTag[22-297](M2F): large HaloTag fragment, positions 22-297 with M to F substitution at second position (protein)
chain: MFHYVDVGPRDGTPVLFLHGNPTSSYVWRNIIPHVAPTHRCIAPDLIGMGKSDKPDLGYFFDDHVRFMDAFIEALGLEEVVLVIHDWGSALGFHWAKRNPERVKGIAFMEFIRPIPTWDEWPEFARETFQAFRTTDVGRKLIIDQNVFIEGTLPMGVVRPLTEVEMDHYREPFLNPVDREPLWRFPNELPIAGEPANIVALVEEYMDWLHQSPVPKLLFWGTPGVLIPPAEAARLAKSLPNCKAVDIGPGLNLLQEDNPDLIGSEIARWLSTLEISG
[1]
  Kd: > 100 µM
[2]
  S:B ratio, background from labeling the large HaloTag: 12
[3]
  effect of mutation in the HT(22-297) large fragment on system performance: improve the fold response
[4]
  change in cell intensity upon SmHaloTag dissociation: reduces almost by half
HeLa cells [5]
  signal-to-background ratio, complemented split HaloTag over labeling the large HaloTag alone: 16
  S:B ratio in +rapamycin/−rapamycin conditions: about 6.7

B2: HaloTag[22-297](Q145H+P154R): variant of the LgHT, positions 22-297 with HaloTag9 mutations (protein)
chain: B1 chain with F2M, Q145H, P154R
[1]; [8]
  complemented signal: higher complemented signal
  fold response: lower fold response
[1]
  Kd: ~1 µM
[3]
  effect of mutation in the HT(22-297) large fragment on system performance: significantly enhanced the labeling speed
HeLa cells [6]
  expression in mammalian cells: expressed better than HaloTag[22-297](M2F)
Saturates fluorescence intensity at higher peptide concentrations
  apparent affinity for the peptide: higher apparent affinity for the peptide
Synthetic HaloTag[3-19] peptide
  lowest peptide concentration with measurable fold response: mid-nanomolar range
[7]
  labeling rate in the presence of peptide: faster labeling rates relative to the HaloTag[22-297](M2F) mutant
HeLa cells [5]; HaloTag[3-19] fusion plus variant LgHT fusion, 1 micromolar Rapamycin, 100 nM JF646
  response to Rapamycin: 25 fold
HeLa cells [5]
  signal-to-background ratio, complemented split HaloTag over labeling the large HaloTag alone: 5.7
  S:B ratio in +rapamycin/−rapamycin conditions: about 4
